The text below walks through data of US20230212266A1 (FRED HUTCHINSON CANCER CENTER, published 2023).

What all share (assay): BLI, mAb on anti-human Fc probe, antigen in solution
Assay [1] deals with T1, SARS-CoV-2 receptor binding domain (RBD) (SARS-CoV-2, UniProt P0DTC2 319-591).
For assay [2], the target named is T1, SARS-CoV-2 receptor binding domain (RBD). The source holds these as a separate data set.
For assay [3] the target is unchanged. The source holds these as a separate data set.
For assay [4] the target is unchanged. The source holds these as a separate data set.
For assay [5] the target is unchanged. The source holds these as a separate data set.
Assay [6] has the same target. The source holds these as a separate data set.
Assay [7] shares this target. This is another data set of the same source.
Assay [8] shares this target. This is another data set of the same source.
Assay [9] shares this target. This is another data set of the same source.
For assay [10] the target is unchanged. The source holds these as a separate data set.
The target is the same in assay [11]. The source holds these as a separate data set.
Assay [12] has the same target. The source holds these as a separate data set.
The target is the same in assay [13]. The source holds these as a separate data set.
For assay [14] the target is unchanged. The source holds these as a separate data set.
Assay [15] has the same target. This is another data set of the same source.
Assay [16] shares this target. This is another data set of the same source.
The target is the same in assay [17]. The source holds these as a separate data set.

Numbering of substitutions follows the chain as printed. Where two headings read alike, the source gives them in different places.

B1: CV2-37 (antibody, V domains shown)
VH: QVQLVQSGAEVKKPGASVKVSCRASGYTFTNFGISWVRQAPGLGLEWMGWISTYNGNTNYAQKLQGRVTMTTDTSTSTAYMELRSLRSDDTAVYYCARASGPYLLGLYWGQGTLVTVSS
VL: QSVLTQPPSVSGAPGQRVTISCTGSSSNIGAGYDVHWYQQLPGTAPKLLIYGNSNRPSGVPDRFSGSKSGTSASLAITGLQAEDEADYYCQSYDSSLSDVVFGGGTKLTVL
notes: expressed as IgG
For the molecule B1, in assay [1], the binding result is reported as “no binding”.

B2: CV2-30 (antibody, V domains shown)
VH: QVQLVQSGAEVKKPGSSVKVSCKASGGTFSSYAITWVRQAPGQGLEWMGGIIPIFGTANYAQKFQGRVTITADESTNTAYMELSSLTSEDTAVYYCAKIGDYDSSGYYFDYWAQGTLVTVSS
VL: EIVLTQSPATLSLSPGERATLSCRASQSVSSFLAWYQQKPGQAPRLLIYDASNRATGIPARFSGSGSGTDFTLTISSLEPEDFAVYYCQQRSNWPPSITFGQGTRLEIK
notes: expressed as IgG
As to B2, in assay [2], the binding result is “no binding”.

B3: CV2-33 (antibody, V domains shown)
VH: QVQLVQSGAEVKKPGSSVKVSCKASGGTFSSYAISWVRQAPGQGLEWMGGIIPIFGTANYAQKFQGRVTITADESTSTAYMELSSLRSEDTAVYYCARISSYDSSGYSMDVWGQGTTVTVSS
VL: B2 VL with F32Y, S97R, I98V, Q102P, R105K, L106V, E107D
notes: expressed as IgG
As to B3, in assay [3], the binding result was “no binding”.

B4: CV2-27 (antibody, V domains shown)
VH: QLQLQESGPGLVKPSETLSLTCTVSGGSISSSSYYWGWIRQPPGKGLEFIGSIYYSGSTYYNPSLKSRVTISVDTSKNQFSLKLSSVTAADTAVYYCATQEVVLVRPYNYNGMDVWGQGTTVTVSS
VL: QSALTQPASVSGSPGQSITLSCTGTSSDVGGYNYVSWYQQHPGKAPKLMIYEVSNRPSGVSNRFSGSKSGNTASLTISGLQAEDEADYYCSSYTSISTLVFGTGTKVTVL
notes: expressed as IgG
In the case of B4, the binding result in assay [4] is “no binding”.

B5: CV2-38 (antibody, V domains shown)
VH: QVQLVQSGAEVKKPGSSVKVSCKASGGTFSSYAISWVRQAPGQGLEWMGGIIPIFGTANYAQKFQGRVTITADESTSTAYMELSSLRSEDTAVYYCASARFITMVRGVINIYYYGMDVWGQGTTVTVSS
VL: B4 VL with L20I, I96S, V100L, T103G, V107L, T108R, V109S, L110C
notes: expressed as IgG
In the case of B5, the binding result in [5] is “no binding”.

B6: CV9 (antibody, V domains shown)
VH: QLQLQESGPGLVKPSETLSLTCTVSGGSISSSSYYWGWIRQPPGKGLEWIGSIYYSGSTYYNPSLKSRVTISVDTSKNQFSLKLSSVTAADTAVYYCATHIVVVTATPNWYFDLWGRGTLVTVSS
VL: B4 VL with L20I, E52D, L99W, T103G, V107L
notes: expressed as IgG
For B6, in [6], the binding result is “no binding”.

B7: CV2-29 (antibody, V domains shown)
VH: QVQLVESGGGVVQPGRSLRLSCAASGFTFSTYAMHWVRQAPGKGLEWVAVISYDGSNKYYADSVKGRFTISRDNSKNTLYLQMNSLRAEDTAVYYCARAYGGSYFYGMDVWGQGTTVTVSS
VL: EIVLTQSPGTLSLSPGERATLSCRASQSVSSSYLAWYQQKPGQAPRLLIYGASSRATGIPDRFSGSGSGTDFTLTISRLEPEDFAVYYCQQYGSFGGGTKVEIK
notes: expressed as IgG
In the case of B7, in assay [7], the binding result is reported as “no binding”.

B8: CV2-32 (antibody, V domains shown)
VH: EVQLVESGGGLVQPGRSLRLSCTASGFTFGDYAMSWFRQAPGKGLEWVGFIRSKAYGGTTEYAASVKGRFTISRDDSKSIAYLQMNSLKTEDTAVYYCTMVWQQLHDAFDIWGQGTMVTVSS
VL: SYELTQPPSVSVSPGQTARITCSGDALPKQYAYWYQQKPGQAPVLVIYKDSERPSGIPERFSGSSSGTTVTLTISGVQAEDEADYYCQSADSSGTYSWVFGGGTKLTVL
notes: expressed as IgG
Consider B8, for which the binding result in [8] is given as “no binding”.

B9: CV2-23 (antibody, V domains shown)
VH: QVQLVESGGGVVQPGRSLRLSCAASGFTFNSFAMHWVRQAPGKGLEWVAVISYDGNNKYYADSVKGRFTISRDNSKNTLYLQMNSLRAEDTAVYYCARDRSGGYSCFDYWGQGTLVTVSS
VL: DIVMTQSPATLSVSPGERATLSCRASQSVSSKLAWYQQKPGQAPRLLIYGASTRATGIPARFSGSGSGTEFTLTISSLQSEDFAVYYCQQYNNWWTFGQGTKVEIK
notes: expressed as IgG
In the case of B9, in [9], the binding result was “no binding”.

B10: CV2-24 (antibody, V domains shown)
VH: EVQLVESGGGLVKPGGSLRLSCAASGFTFSSYSMNWVRQAPGKGLEWVSSISSTSNYIYYADSVKGRFTISRDNAKNSLYLQMNSLRAEDTAVYYCARVSPNYDFWSGYYPDAFDIWGQGTMVTVSS
VL: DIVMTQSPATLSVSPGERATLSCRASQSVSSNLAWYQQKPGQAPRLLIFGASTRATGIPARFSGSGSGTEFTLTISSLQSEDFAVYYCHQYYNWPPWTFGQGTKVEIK
notes: expressed as IgG
In the case of B10, the binding result in assay [10] is reported as “no binding”.

B11: CV2-39 (antibody, V domains shown)
VH: EVQLVESGGGLVQPGGSLRLSCSASGFTFSSYAMHWVRQAPGKGLEYVSGISSNGGSTYYADSVKGRITISRDNSKKTLYLQMSSLRAEDTAVYYCVKSSSRGYYWGQGTLVTVSS
VL: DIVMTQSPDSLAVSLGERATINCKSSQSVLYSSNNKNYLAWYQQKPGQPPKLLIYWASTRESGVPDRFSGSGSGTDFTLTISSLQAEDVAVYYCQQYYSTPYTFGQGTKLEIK
notes: expressed as IgG
Consider B11, for which the binding result in assay [11] is on record as “no binding”.

B12: CV2-28 (antibody, V domains shown)
VH: QLQLQESGPGLVKPSETLSLTCTVSGGSVSSNAYYWGWIRQPPGKGLEWIGSVNYRGSTYYIPTLKSRITISVNTSKNQFSLKLTSVTAADTAVYYCARRGVALVTITYFDFWGQGALVTVSS
VL: QSVLTQPPSVSGAPGQRVTITCTGSSSNIGSGYDVHWYQQLPGTAPKLLIYGNTNRPSGVPDRFSGSKSGTSASLAITGLQAEDEAHYYCQSYDSSVVFGGGTKLTVL
notes: expressed as IgG
As to B12, in assay [12], the binding result is “no binding”.

B13: CV2-34 (antibody, V domains shown)
VH: QVQLVESGGGVVQPGRSLRLSCAASRFTFSTYAMHWVRQAPGKGLEWVTVISYDGDNKYYADSVKGRFTISRDNSKNTLYLQMNSLRTEDTAVYYCTRAGSGSYLSYFDYWGQGTLVTVSS
VL: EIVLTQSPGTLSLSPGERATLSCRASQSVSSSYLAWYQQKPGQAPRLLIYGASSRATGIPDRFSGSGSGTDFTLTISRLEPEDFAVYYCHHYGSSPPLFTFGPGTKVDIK
notes: expressed as IgG
With B13, in assay [13], the binding result is reported as “no binding”.

B14: CV2-25 (antibody, V domains shown)
VH: EVQLVQSGAEVKKPGESLRISCKGSGYSFTSYWISWVRQMPGKGLEWMGKIDPSDSYTNYSPSFQGHVTISADKSISTAYLQWSSLKASDTAMYYCARQFGGELLGWFDPWGQGTLVTVSS
VL: DIQMTQSPSSLSASVGDRVTITCRASQGISNYLAWYQQKPGKVPKLLIYAASTLQSGVPSRFSGSGSGTDFTLTISSLQPEDVATYYCQKYNSAPFTFGPGTKVDIK
notes: expressed as IgG
For B14, the binding result in [14] is “no binding”.

B15: CV2-35 (antibody, V domains shown)
VH: EVQLVESGGGLVQPGGSLRLSCAASGFTFSNCWMSWVRQAPGKGLEWVANIKQDGSEKYYVDSVKGRFTISRDNAKNSLYLQMNSLRAEDTAVYYCARMGNTAWYFDLWGRGTLVTVSS
VL: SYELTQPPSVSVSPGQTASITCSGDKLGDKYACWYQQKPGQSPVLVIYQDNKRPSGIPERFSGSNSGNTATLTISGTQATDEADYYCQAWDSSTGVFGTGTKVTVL
notes: expressed as IgG
As for B15, in assay [15], the binding result is “no binding”.

B16: CV2-26 (antibody, V domains shown)
VH: QVQLVESGGGVVQPGRSLRLSCAAAGFIFSSYAMNWVRQAPGKGLEWVAVISYDGSNKYYADSVKGRFTISRDNSKNTLNLQMNSLRAEDTAVYYCARGNGYIIIDYWGQGTLVTVSS
VL: QLVLTQSPSASASLGASVKLTCTLSSGHSSYAIAWHQQQPEKGPRYLMKFNSDGTHSKGDGIPDRFSGSSSGAERSLTISSLQSEDEADYYCQTWGTGGVFGGGTKLTVL
notes: expressed as IgG
As to B16, in assay [16], the binding result is given as “no binding”.

B17: CV2-22 (antibody, V domains shown)
VH: QVQLVESGGGVVQPGRSLRLSCAASGFTFSSYGMHWVRQAPGKGLEWVAVISYDGSNKYYADSVKGRFTISRDNSKNTLYLQMNSLRAEDTALYYCASEIVSFIGSSEDYWGQGTLVTVSS
VL: SYELTQPPSVSVSPGQTARITCSGDALPKKYAYWYQQKSGQAPVLVIYEDSKRPSGIPERFSGSSSGTMATLTISGAQVEDEADYCCYSTDSSDNHRRVFGTGTKVTVL
notes: expressed as IgG
With B17, the binding result in assay [17] is “no binding”.
